Results on 41 molecules are retold here after article PMC11417369, “DNA sequence and chromatin differentiate sequence-specific transcription factor binding in the human malaria parasite Plasmodium falciparum”.

T1: AP2-LT D1 (Plasmodium falciparum, UniProt Q8IAM1 2520-2577)
T1 sequence: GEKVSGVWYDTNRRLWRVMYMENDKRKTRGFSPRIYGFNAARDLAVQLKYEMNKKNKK

B1: CACACA_site9270 (dsDNA)
DNA 1: AAAAAAAAAAAATATACACACACACCGACACATAAA
DNA 2: TTTATGTGTCGGTGTGTGTGTATATTTTTTTTTTTT
B2: CACACA_site6447 (dsDNA)
DNA 1: AATACACGCAGACACACACACACACGCACATATATA
DNA 2: TATATATGTGCGTGTGTGTGTGTGTCTGCGTGTATT
B3: CACACA_site1192 (dsDNA)
DNA 1: AAAAATACCTTATATATACACACTATGTTTTTCTTT
DNA 2: AAAGAAAAACATAGTGTGTATATATAAGGTATTTTT
B4: CACACA_site8541 (dsDNA)
DNA 1: AAGTACATACATAAAACACACACATATATATATATA
DNA 2: TATATATATATATGTGTGTGTTTTATGTATGTACTT
B5: CACACA_site8452 (dsDNA)
DNA 1: AAAAAAAAAAAACATACACACACATATATATATATA
DNA 2: TATATATATATATGTGTGTGTATGTTTTTTTTTTTT
B6: CACACA_site6367 (dsDNA)
DNA 1: AATATCTTAGTGGATACACACATATAAATGTGTATT
DNA 2: AATACACATTTATATGTGTGTATCCACTAAGATATT
B7: CACACA_site8266 (dsDNA)
DNA 1: TATGCATATACACAAGCACACATATATATATATATA
DNA 2: TATATATATATATATGTGTGCTTGTGTATATGCATA
B8: CACACA_site4429 (dsDNA)
DNA 1: TAAACATACAGATACACACACACACCCACAGAGACA
DNA 2: TGTCTCTGTGGGTGTGTGTGTGTATCTGTATGTTTA
B9: CACACA_site517 (dsDNA)
DNA 1: AATTAACAAAAACACACACACACACCCACAAAAAAA
DNA 2: TTTTTTTGTGGGTGTGTGTGTGTGTTTTTGTTAATT
B10: CACACA_site2459 (dsDNA)
DNA 1: ACCTAAGAACTATTTACACACATATACAAAATATAT
DNA 2: ATATATTTTGTATATGTGTGTAAATAGTTCTTAGGT
B11: CACACA_site5250 (dsDNA)
DNA 1: CGCGCCCAGAAACACACACACACACCGATATATATA
DNA 2: TATATATATCGGTGTGTGTGTGTGTTTCTGGGCGCG
B12: CACACA_site3390 (dsDNA)
DNA 1: ACAAAATAAAAACACACACACAAACACAAAAAAATA
DNA 2: TATTTTTTTGTGTTTGTGTGTGTGTTTTTATTTTGT
B13: CACACA_site905 (dsDNA)
DNA 1: AAAAAGGAGAAACACACACACACACCCATATATATA
DNA 2: TATATATATGGGTGTGTGTGTGTGTTTCTCCTTTTT
B14: CACACA_site5977 (dsDNA)
DNA 1: AATGACAACCTTGTCACACATATATATATATATATA
DNA 2: TATATATATATATATATGTGTGACAAGGTTGTCATT
B15: CACACA_site8035 (dsDNA)
DNA 1: TAAGTATACACATACACACACACACTAATAAAAAAA
DNA 2: TTTTTTTATTAGTGTGTGTGTGTATGTGTATACTTA
B16: CACACA_site6448 (dsDNA)
DNA 1: AAAATACACGCATACACACACACACGCGCACATATA
DNA 2: TATATGTGCGCGTGTGTGTGTGTATGCGTGTATTTT
B17: CACACA_site9096 (dsDNA)
DNA 1: TCATAAATTAAACACACACACACATCTGGATACCCC
DNA 2: GGGGTATCCAGATGTGTGTGTGTGTTTAATTTATGA
B18: CACACA_site7437 (dsDNA)
DNA 1: AGATAAAAAAAGTACACACACACATATATTTATATA
DNA 2: TATATAAATATATGTGTGTGTGTACTTTTTTTATCT
B19: CACACA_site8234 (dsDNA)
DNA 1: CTATTTCATAAACACACACACACAAACAAACATATA
DNA 2: TATATGTTTGTTTGTGTGTGTGTGTTTATGAAATAG
B20: CACACA_site452 (dsDNA)
DNA 1: CACAAAGACACAAACACACACACACCCACATACATA
DNA 2: TATGTATGTGGGTGTGTGTGTGTTTGTGTCTTTGTG
B21: CACACA_site4294 (dsDNA)
DNA 1: TTTATTAATGGACACACACACACACCCAAAATAAAA
DNA 2: TTTTATTTTGGGTGTGTGTGTGTGTCCATTAATAAA
B22: CACACA_site242 (dsDNA)
DNA 1: TTTATTAAGAAACACACACACACACCCAAAATAAAA
DNA 2: TTTTATTTTGGGTGTGTGTGTGTGTTTCTTAATAAA
B23: CACACA_site7896 (dsDNA)
DNA 1: TATACATACATACATACACACACACCGATATATATA
DNA 2: TATATATATCGGTGTGTGTGTATGTATGTATGTATA
B24: CACACA_site4314 (dsDNA)
DNA 1: AATAAATAAAGAAGTACACACATATATATATATATA
DNA 2: TATATATATATATATGTGTGTACTTCTTTATTTATT
B25: CACACA_site8822 (dsDNA)
DNA 1: ATTATGCACCAACACACACACACACTCCTAAAAAAT
DNA 2: ATTTTTTAGGAGTGTGTGTGTGTGTTGGTGCATAAT
B26: CACACA_site4351 (dsDNA)
DNA 1: CCCACAGACGGACACACACACATATATATATATATA
DNA 2: TATATATATATATATGTGTGTGTGTCCGTCTGTGGG
B27: CACACA_site5033 (dsDNA)
DNA 1: TCATAGTATGGACACACACACACACCCATATATATA
DNA 2: TATATATATGGGTGTGTGTGTGTGTCCATACTATGA
B28: CACACA_site2423 (dsDNA)
DNA 1: GTGCATAAATCATACACACACACATATATATATATA
DNA 2: TATATATATATATGTGTGTGTGTATGATTTATGCAC
B29: CACACA_site126 (dsDNA)
DNA 1: ACGATATTTTTGGTGACACACATATATATATATATA
DNA 2: TATATATATATATATGTGTGTCACCAAAAATATCGT
B30: CACACA_site5591 (dsDNA)
DNA 1: ATAATATAAACATACACACACACATATATATATATA
DNA 2: TATATATATATATGTGTGTGTGTATGTTTATATTAT
B31: CACACA_site4472 (dsDNA)
DNA 1: TTTGAATCCTTATATACACACATTATATAATATTAT
DNA 2: ATAATATTATATAATGTGTGTATATAAGGATTCAAA
B32: CACACA_site6577 (dsDNA)
DNA 1: AGCAACCCCCTAGCTACACACATATAGATATAAATA
DNA 2: TATTTATATCTATATGTGTGTAGCTAGGGGGTTGCT
B33: CACACA_site773 (dsDNA)
DNA 1: TATATATAGAAACACACACACATATATATATATATA
DNA 2: TATATATATATATATGTGTGTGTGTTTCTATATATA
B34: CACACA_site2539 (dsDNA)
DNA 1: TATATATAGAAACACACACACACATATATATATATT
DNA 2: AATATATATATATGTGTGTGTGTGTTTCTATATATA
B35: CACACA_site2248 (dsDNA)
DNA 1: TATACATAGAAACACACACACATATATATATATATA
DNA 2: TATATATATATATATGTGTGTGTGTTTCTATGTATA
B36: CACACA_site5592 (dsDNA)
DNA 1: AATATAAACAAACACACACACATATATATATATATT
DNA 2: AATATATATATATATGTGTGTGTGTTTGTTTATATT
B37: CACACA_site5583 (dsDNA)
DNA 1: ATTAAATACATTAACACACACACAAATAAATACATA
DNA 2: TATGTATTTATTTGTGTGTGTGTTAATGTATTTAAT
B38: CACACA_site7828 (dsDNA)
DNA 1: TATATAAATAGACACACACACACCTTATAATTACTA
DNA 2: TAGTAATTATAAGGTGTGTGTGTGTCTATTTATATA
B39: CACACA_site363 (dsDNA)
DNA 1: CACACCCACAGACACACACACACATATATATATATA
DNA 2: TATATATATATATGTGTGTGTGTGTCTGTGGGTGTG
B40: CACACA_site3391 (dsDNA)
DNA 1: AAAAAAAAAAAAAACACACATACACGCCCACCCATA
DNA 2: TATGGGTGGGCGTGTATGTGTGTTTTTTTTTTTTTT
B41: CACACA_site8278 (dsDNA)
DNA 1: GTAACATACACATATACACACACACCGATATACATA
DNA 2: TATGTATATCGGTGTGTGTGTATATGTGTATGTTAC

The target in the data set is T1, AP2-LT D1. Nature of the data set: gcPBM; about 25 ug protein; PBS, 1% milk, 0.2 mg/ml BSA, salmon testes DNA, 0.03% Triton X-100. The settings on record: tags: N-terminal GST (pGEX-4T-1), kept; label: surface-attached array probe.
Regarding B1, the binding signal is 10.2 ln median PBM intensity, better of two orientations.

Turning to B2, the binding signal is 10.3 ln median PBM intensity, better of two orientations.

As for B3, the binding signal is 9.31 ln median PBM intensity, better of two orientations.

B4: the binding signal was 9.93 ln median PBM intensity, better of two orientations.

As for B5, the binding signal was 10.3 ln median PBM intensity, better of two orientations.

With B6, the binding signal is 9.32 ln median PBM intensity, better of two orientations.

For the molecule B7, the binding signal was 10.1 ln median PBM intensity, better of two orientations.

On to B8, for which the binding signal is 10.1 ln median PBM intensity, better of two orientations.

As to B9, the binding signal was 10.3 ln median PBM intensity, better of two orientations.

Consider B10, for which the binding signal is 9.34 ln median PBM intensity, better of two orientations.

Take B11: the binding signal was 10.2 ln median PBM intensity, better of two orientations.

Take B12: the binding signal was 10.1 ln median PBM intensity, better of two orientations.

For B13, the binding signal is 10.2 ln median PBM intensity, better of two orientations.

For B14, the binding signal is 10.2 ln median PBM intensity, better of two orientations.

With B15, the binding signal is 10.2 ln median PBM intensity, better of two orientations.

As to B16, the binding signal was 10.2 ln median PBM intensity, better of two orientations.

For B17, the binding signal is 10.1 ln median PBM intensity, better of two orientations.

Turning to B18, the binding signal is 9.98 ln median PBM intensity, better of two orientations.

For B19, the binding signal was 10.2 ln median PBM intensity, better of two orientations.

With B20, the binding signal was 10 ln median PBM intensity, better of two orientations.

For B21, the binding signal was 10.1 ln median PBM intensity, better of two orientations.

On to B22, for which the binding signal was 10.1 ln median PBM intensity, better of two orientations.

With B23, the binding signal was 9.94 ln median PBM intensity, better of two orientations.

Regarding B24, the binding signal is 10.3 ln median PBM intensity, better of two orientations.

For the molecule B25, the binding signal is 9.97 ln median PBM intensity, better of two orientations.

For B26, the binding signal is 10.2 ln median PBM intensity, better of two orientations.

As for B27, the binding signal is 10.2 ln median PBM intensity, better of two orientations.

Take B28: the binding signal was 10 ln median PBM intensity, better of two orientations.

For the molecule B29, the binding signal was 9.9 ln median PBM intensity, better of two orientations.

As for B30, the binding signal is 10.1 ln median PBM intensity, better of two orientations.

For B31, the binding signal is 9.33 ln median PBM intensity, better of two orientations.

As for B32, the binding signal was 9.99 ln median PBM intensity, better of two orientations.

Regarding B33, the binding signal is 10.3 ln median PBM intensity, better of two orientations.

Take B34: the binding signal was 10.1 ln median PBM intensity, better of two orientations.

Regarding B35, the binding signal is 10.2 ln median PBM intensity, better of two orientations.

Regarding B36, the binding signal was 9.96 ln median PBM intensity, better of two orientations.

For the molecule B37, the binding signal is 9.88 ln median PBM intensity, better of two orientations.

B38: the binding signal was 10.2 ln median PBM intensity, better of two orientations.

For B39, the binding signal was 10.3 ln median PBM intensity, better of two orientations.

For the molecule B40, the binding signal was 10.1 ln median PBM intensity, better of two orientations.

As to B41, the binding signal is 10 ln median PBM intensity, better of two orientations.
